Test results: the supplement of paper PMC7125110
± gives the standard error. For some of these results: This sample holds only a part of the variants without activity.

B1: glmS ribozyme (parent)
chain: AUAAAAGCGCCAGAACUACAGAAAUGUAGUUGACGAGGAGGAGGUUUAUCGAAUUUUCGGCGGAUGCCUCCAAA

Key:
Details in all cases: with glucosamine-6-phosphate
glucosamine-6-phosphate [1] = variants of: B1; test: kcat; higher = faster cleavage; RNA array
Method in brief: (§1)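 E. coli RNA polymerase transcribed barcoded ribozyme variants in situ on sequenced MiSeq chips, which were tracked via a hybridised Cy3 probe at 37 °C. Tiles were imaged over ~14 h after glucosamine-6-phosphate (40 μM to 10 mM) in HEPES/KCl/Mg(OAc)2 buffer was flowed in. Normalised per-tile medians were fit to one- or two-exponential decays for kobs, and kcat and KM came from weighted Michaelis–Menten fits.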

glucosamine-6-phosphate [2] = variants of: B1; test: KM; higher = weaker cofactor use; RNA array
Method in brief: as §1

glucosamine-6-phosphate [3] = variants of: B1; test: self-cleavage kobs at 40 uM GlcN6P; higher = faster cleavage; RNA array
Method in brief: as §1

glucosamine-6-phosphate [4] = variants of: B1; test: self-cleavage kobs at 160 uM GlcN6P; higher = faster cleavage; RNA array
Method in brief: as §1

glucosamine-6-phosphate [5] = variants of: B1; test: self-cleavage kobs at 640 uM GlcN6P; higher = faster cleavage; RNA array
Method in brief: as §1

glucosamine-6-phosphate [6] = variants of: B1; test: self-cleavage kobs at 2500 uM GlcN6P; higher = faster cleavage; RNA array
Method in brief: as §1

glucosamine-6-phosphate [7] = variants of: B1; test: self-cleavage kobs at 10000 uM GlcN6P; higher = faster cleavage; RNA array
Method in brief: as §1

| Variant | kcat (glucosamine-6-phosphate [1]) | KM (glucosamine-6-phosphate [2]) | self-cleavage kobs at 40 uM GlcN6P (glucosamine-6-phosphate [3]) | self-cleavage kobs at 160 uM GlcN6P (glucosamine-6-phosphate [4]) | self-cleavage kobs at 640 uM GlcN6P (glucosamine-6-phosphate [5]) | self-cleavage kobs at 2500 uM GlcN6P (glucosamine-6-phosphate [6]) | self-cleavage kobs at 10000 uM GlcN6P (glucosamine-6-phosphate [7]) |
| --- | --- | --- | --- | --- | --- | --- | --- |
| G40C A42G | 0.00319 ± 0.00048 s⁻¹ | 1060 ± 250 µM | 0.000131 ± 2.4e-05 s⁻¹ | 0.000438 ± 0.00016 s⁻¹ | 0.000898 ± 0.00025 s⁻¹ | 0.0025 ± 0.0006 s⁻¹ | 0.00299 ± 0.00053 s⁻¹ |
| A39G A53U | 0.0202 ± 0.0043 s⁻¹ | 805 ± 260 µM | 0.00108 ± 0.00016 s⁻¹ | 0.00271 ± 0.00057 s⁻¹ | 0.0101 ± 0.0016 s⁻¹ | 0.0119 ± 0.0027 s⁻¹ | 0.0229 ± 0.0041 s⁻¹ |
| G40U C71G | 0.00552 ± 0.00087 s⁻¹ | 1200 ± 280 µM | 0.000211 ± 2.1e-05 s⁻¹ | 0.000498 ± 8.3e-05 s⁻¹ | 0.00193 ± 0.00025 s⁻¹ | 0.00351 ± 0.00048 s⁻¹ | 0.00519 ± 0.00058 s⁻¹ |
| A39G G66C | 0.00327 ± 0.0016 s⁻¹ | – | 7.7e-05 ± 2.6e-05 s⁻¹ | 0.000141 ± 3.4e-05 s⁻¹ | 0.000484 ± 9.6e-05 s⁻¹ | 0.00169 ± 0.00033 s⁻¹ | – |
| G41A U49G | 3.79e-05 ± 6.4e-06 s⁻¹ | – | – | – | – | 3.9e-05 ± 1e-05 s⁻¹ | 3.34e-05 ± 8.6e-06 s⁻¹ |
| A39U G66U | 0.0039 ± 0.0011 s⁻¹ | 2010 ± 860 µM | 0.000107 ± 1e-05 s⁻¹ | 0.000292 ± 5.6e-05 s⁻¹ | 0.000735 ± 8.7e-05 s⁻¹ | 0.0018 ± 0.00025 s⁻¹ | 0.00372 ± 0.00032 s⁻¹ |
| A39C A48U | 0.000107 ± 1.8e-05 s⁻¹ | 2930 ± 1400 µM | < 1e-05 s⁻¹ | < 1e-05 s⁻¹ | – | 5.68e-05 ± 1.3e-05 s⁻¹ | 8.1e-05 ± 1.2e-05 s⁻¹ |
| G41A G66U C70A | 0.000127 ± 3e-05 s⁻¹ | – | – | – | 9.26e-05 ± 3.3e-05 s⁻¹ | 6.32e-05 ± 2.8e-05 s⁻¹ | 0.000131 ± 2e-05 s⁻¹ |
| G40A A53U | 0.00621 ± 0.0028 s⁻¹ | – | 0.00015 ± 1.5e-05 s⁻¹ | 0.000422 ± 0.00011 s⁻¹ | 0.00107 ± 0.00016 s⁻¹ | 0.00268 ± 0.00057 s⁻¹ | 0.00711 ± 0.001 s⁻¹ |
| A39U A53U | 0.0113 ± 0.0033 s⁻¹ | 1260 ± 530 µM | 0.000461 ± 5e-05 s⁻¹ | 0.000985 ± 0.00016 s⁻¹ | 0.00368 ± 0.00054 s⁻¹ | 0.00619 ± 0.001 s⁻¹ | 0.0126 ± 0.0017 s⁻¹ |
| G41A A52G | 8.32e-05 ± 1.6e-05 s⁻¹ | – | – | – | – | 7.3e-05 ± 1.3e-05 s⁻¹ | 6.83e-05 ± 1.3e-05 s⁻¹ |
| G41A A42G | 0.000223 ± 4.2e-05 s⁻¹ | – | – | – | 8.45e-05 ± 1.3e-05 s⁻¹ | 0.000296 ± 4.3e-05 s⁻¹ | 0.000192 ± 1.8e-05 s⁻¹ |
| G40A G41A U55G | 8.3e-05 ± 7.3e-06 s⁻¹ | 578 ± 220 µM | – | – | 4.12e-05 ± 1.4e-05 s⁻¹ | 7.85e-05 ± 2.1e-05 s⁻¹ | 7.52e-05 ± 1.5e-05 s⁻¹ |
| A39U U54C | 0.0342 ± 0.014 s⁻¹ | – | 0.000447 ± 5e-05 s⁻¹ | – | 0.00436 ± 0.00054 s⁻¹ | 0.00989 ± 0.0032 s⁻¹ | 0.0285 ± 0.0042 s⁻¹ |
| G40A G59U | 1.46e-05 ± 2.7e-06 s⁻¹ | – | < 1e-05 s⁻¹ | < 1e-05 s⁻¹ | – | – | – |
| G38A U45A | < 1e-05 s⁻¹ | – | – | – | < 1e-05 s⁻¹ | – | – |
| A39C U56A | 0.00331 ± 0.00086 s⁻¹ | 4000 ± 1500 µM | 5.87e-05 ± 1.3e-05 s⁻¹ | 0.000129 ± 3.6e-05 s⁻¹ | 0.000412 ± 5.2e-05 s⁻¹ | 0.00133 ± 0.00019 s⁻¹ | 0.00238 ± 0.00034 s⁻¹ |
| A39G U47A | 0.0304 ± 0.014 s⁻¹ | – | 0.00119 ± 0.00019 s⁻¹ | 0.00231 ± 0.00088 s⁻¹ | 0.00788 ± 0.0025 s⁻¹ | 0.0164 ± 0.005 s⁻¹ | 0.0441 ± 0.011 s⁻¹ |
| A39U C67G | 0.00521 ± 0.0013 s⁻¹ | 1290 ± 420 µM | 0.000162 ± 1.8e-05 s⁻¹ | 0.000514 ± 7.5e-05 s⁻¹ | 0.00221 ± 0.00032 s⁻¹ | 0.00196 ± 0.00069 s⁻¹ | 0.00516 ± 0.00068 s⁻¹ |
| A39U C67A | 0.00981 ± 0.0028 s⁻¹ | 2330 ± 910 µM | 0.000197 ± 2.5e-05 s⁻¹ | 0.000759 ± 0.00012 s⁻¹ | 0.0015 ± 0.00027 s⁻¹ | 0.00477 ± 0.0011 s⁻¹ | 0.00878 ± 0.0012 s⁻¹ |
| A39U C67U | 0.0107 ± 0.0018 s⁻¹ | 2220 ± 500 µM | 0.000223 ± 1.9e-05 s⁻¹ | 0.000573 ± 8.1e-05 s⁻¹ | 0.00228 ± 0.00025 s⁻¹ | 0.00631 ± 0.001 s⁻¹ | 0.00878 ± 0.00079 s⁻¹ |
| G40A C50G | < 1e-05 s⁻¹ | – | – | – | – | – | – |
| G40U C67U | 7.51e-05 ± 5.3e-06 s⁻¹ | 1470 ± 410 µM | < 1e-05 s⁻¹ | – | 2.67e-05 ± 8.3e-06 s⁻¹ | 4.31e-05 ± 8.2e-06 s⁻¹ | 6.64e-05 ± 6e-06 s⁻¹ |
| A39G C58G | 0.000195 ± 2.9e-05 s⁻¹ | 3340 ± 1100 µM | – | – | 3.89e-05 ± 1.2e-05 s⁻¹ | 7.24e-05 ± 1.7e-05 s⁻¹ | 0.000151 ± 2.3e-05 s⁻¹ |
| A39G C58U | 7.06e-05 ± 1.1e-06 s⁻¹ | 2990 ± 150 µM | < 1e-05 s⁻¹ | – | – | 3.24e-05 ± 1.1e-05 s⁻¹ | 5.43e-05 ± 8.5e-06 s⁻¹ |
| A39U U55A | 0.0539 ± 0.0098 s⁻¹ | 5710 ± 1200 µM | 0.000396 ± 9.4e-05 s⁻¹ | 0.00146 ± 0.00024 s⁻¹ | 0.00564 ± 0.001 s⁻¹ | 0.0142 ± 0.0033 s⁻¹ | 0.0376 ± 0.0091 s⁻¹ |
| A39G U57C | 0.000566 ± 0.0002 s⁻¹ | – | < 1e-05 s⁻¹ | – | 5.87e-05 ± 1.5e-05 s⁻¹ | 0.00013 ± 2.3e-05 s⁻¹ | 0.000351 ± 6.4e-05 s⁻¹ |
| G40C U69C | 7.37e-05 ± 2.1e-05 s⁻¹ | – | – | – | – | 5.5e-05 ± 1.1e-05 s⁻¹ | 5.63e-05 ± 1.4e-05 s⁻¹ |
| G40U U45G | 0.0012 ± 0.00018 s⁻¹ | 724 ± 190 µM | 7.67e-05 ± 2e-05 s⁻¹ | 0.000202 ± 3.6e-05 s⁻¹ | 0.000582 ± 8.9e-05 s⁻¹ | 0.000779 ± 0.00017 s⁻¹ | 0.00134 ± 0.00027 s⁻¹ |
